Values belong to the binder of their own block, whether it stands above or below them.
Tests used:
[1] = target: T1, human CD40 on cells (human, UniProt P25942 21-277); assay: flow cytometry on human primary naive B-cells, 1 h at 4 °C, AF488-conjugated secondary antibody (MFI)
T1 construct: also called hCD40
Procedure: Naive B-cell were plated at a density of […] cells per well in 96-well plates and incubated with CD40 agonists, hexameric ligand and anti-CD40 antibodies, for 1 hour at 4° C.

[2] = target: T1, human CD40 on cells; assay: cell-based or functional assay
[3] = target: T1, human CD40 on cells; assay: cell-based or functional assay; remark: listed apart in the source
[4] = target: T1, human CD40 on cells; assay: cell-based or functional assay; remark: listed apart in the source
[5] = target: T1, human CD40 on cells; assay: cell-based or functional assay; remark: listed apart in the source
[6] = target: T1, human CD40 on cells; assay: flow cytometry on Raji cells
Procedure: (§1) Briefly, Raji cells were seeded in 96-well plates at 1.0×10⁵ cells/well and incubated with serially-diluted test antibodies for 60 minutes at 4° C. in 2% FBS/dPBS buffer. The cells were then washed twice with dPBS and further incubated with secondary allophycocyanin (APC)-conjugated AffiniPure F(ab′)₂ fragment donkey anti-human IgG (H+L) antibody (Jackson ImmunoResearch, Ref. 709-136-149) (1:500) for 30 minutes at 4° C. Finally, the cells were washed twice with dPBS and suspended in FACS buffer for flow cytometry analysis. MFI values vs concentrations were analyzed by FlowJo and data were further fitted with four-parameter non-linear regression to get EC₅₀ values by GraphPad Prism software.

[7] = target: T1, human CD40 on cells; assay: flow cytometry on U-2 OS/NFκB cells
Procedure: as §1, with “cultured U-2 OS/NFκB” for “Raji”

[8] = target: T1, human CD40 on cells; assay: flow cytometry on Raji cells; EC50 relative to mAb1
Procedure: as §1

[9] = target: T1, human CD40 on cells; assay: flow cytometry on U-2 OS/NFκB cells; EC50 relative to mAb1
Procedure: as §1, with “cultured U-2 OS/NFκB” for “Raji”

T1 sequence (P25942 21-277 limits assumed): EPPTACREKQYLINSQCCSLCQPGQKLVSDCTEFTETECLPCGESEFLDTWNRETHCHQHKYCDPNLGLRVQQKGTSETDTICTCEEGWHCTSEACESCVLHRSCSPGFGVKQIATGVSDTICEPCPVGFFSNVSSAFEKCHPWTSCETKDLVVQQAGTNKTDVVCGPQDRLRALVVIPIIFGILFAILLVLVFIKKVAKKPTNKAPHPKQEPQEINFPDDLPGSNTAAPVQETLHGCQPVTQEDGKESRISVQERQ

B1: mAb4 (Y32R) (antibody, human IgG2, kappa, V domains shown)
VH: QVQLVQSGAEVKKPGASVKVSCKASGYTFTGRYMHWVRQAPGQGLEWMGWINPDSGGTNYAQKFQGRVTMTRDTSISTAYMELNRLRSDDTAVYYCARDQPLGYCTNGVCSYFDYWGQGTLVTVSS
VL: DIQMTQSPSSVSASVGDRVTITCRASQGIYSWLAWYQQKPGKAPNLLIYTASTLQSGVPSRFSGSGSGTDFTLTISSLQPEDFATYYCQQANIFPLTFGGGTKVEIKR
notes: Mutant of AbC1 with the same constant regions (IgG2)
binding result [1]: binds

B2: MC1 (masked mAb1 comprising MM1 and CL1) (antibody, human IgG2, kappa)
heavy: QVQLVQSGAEVKKPGASVKVSCKASGYTFTGKYMHWVRQAPGQGLEWMGWINPDSGGTNYAQKFQGRVTMTRDTSIATAYMELNRLRSDDTAVYYCARDQPLGYCTNGVCSYFDYWGQGTLVTVSSASTKGPSVFPLAPCSRSTSESTAALGCLVKDYFPEPVTVSWNSGALTSGVHTFPAVLQSSGLYSLSSVVTVPSSNFGTQTYTCNVDHKPSNTKVDKTVERKCCVECPPCPAPPVAGPSVFLFPPKPKDTLMISRTPEVTCVVVDVSHEDPEVQFNWYVDGVEVHNAKTKPREEQFNSTFRVVSVLTVVHQDWLNGKEYKCKVSNKGLPAPIEKTISKTKGQPREPQVYTLPPSREEMTKNQVSLTCLVKGFYPSDIAVEWESNGQPENNYKTTPPMLDSDGSFFLYSKLTVDKSRWQQGNVFSCSVMHEALHNHYTQKSLSLSPGK
light: EDEPGIRCYYNDDTCQYGGGPLGLAGSGGSDIQMTQSPSSVSASVGDRVTITCRASQGIYSWLAWYQQKPGKAPNLLIYTASTLQSGVPSRFSGSGSGTDFTLTISSLQPEDFATYYCQQANIFPLTFGGGTKVEIKRTVAAPSVFIFPPSDEQLKSGTASVVCLLNNFYPREAKVQWKVDNALQSGNSQESVTEQDSKDSTYSLSSTLTLSKADYEKHKVYACEVTHQGLSSPVTKSFNRGEC
notes: Conditionally-active (masked) antibody
EC50, luciferase reporter assay in U-2 OS/NFκB cells [2]: 179 nM
Relative masking efficacy, luciferase reporter assay in U-2 OS/NFκB cells [2]: 753 fold
EC50, CD86 expression, primary human B-cell activation assay [3]: 40.3 nM
Relative masking efficacy, CD86 expression, primary human B-cell activation assay [3]: 231 fold
EC50, CD83 expression, B-cells of hCD40 KI mice [4]: 6.7 nM
EC50, CD86 expression, B-cells of hCD40 KI mice [4]: 3.57 nM
Relative masking efficacy, CD83 expression, B-cells of hCD40 KI mice [4]: 131 fold
Relative masking efficacy, CD86 expression, B-cells of hCD40 KI mice [4]: 115 fold
EC50, CD83 expression, MoDC maturation assay [5]: 56.5 nM
EC50, IL-8 release, MoDC maturation assay [5]: 19.5 nM
EC50 [6]: 476 nM
EC50 [7]: 330 nM
Relative masking efficacy [8]: 355 fold
Relative masking efficacy [9]: 220 fold

B4: MC2 (masked mAb1 comprising MM2 and CL1) (antibody, human IgG2, kappa)
heavy: B2 heavy
light: EVGSYYVCPVRFQYFCEEGGGPLGLAGSGGSDIQMTQSPSSVSASVGDRVTITCRASQGIYSWLAWYQQKPGKAPNLLIYTASTLQSGVPSRFSGSGSGTDFTLTISSLQPEDFATYYCQQANIFPLTFGGGTKVEIKRTVAAPSVFIFPPSDEQLKSGTASVVCLLNNFYPREAKVQWKVDNALQSGNSQESVTEQDSKDSTYSLSSTLTLSKADYEKHKVYACEVTHQGLSSPVTKSFNRGEC
notes: as for B2
EC50, luciferase reporter assay in U-2 OS/NFκB cells [2]: 113 nM
Relative masking efficacy, luciferase reporter assay in U-2 OS/NFκB cells [2]: 477 fold
EC50, CD86 expression, primary human B-cell activation assay [3]: 28.5 nM
Relative masking efficacy, CD86 expression, primary human B-cell activation assay [3]: 176 fold
EC50, CD83 expression, B-cells of hCD40 KI mice [4]: 2.31 nM
EC50, CD86 expression, B-cells of hCD40 KI mice [4]: 1.46 nM
Relative masking efficacy, CD83 expression, B-cells of hCD40 KI mice [4]: 45.2 fold
Relative masking efficacy, CD86 expression, B-cells of hCD40 KI mice [4]: 47.2 fold
EC50, CD83 expression, MoDC maturation assay [5]: 33.1 nM
EC50, IL-8 release, MoDC maturation assay [5]: 15.1 nM
EC50 [6]: 488 nM
EC50 [7]: 317 nM
Relative masking efficacy [8]: 364 fold
Relative masking efficacy [9]: 211 fold

More lines, now with the values ahead:

EC50, luciferase reporter assay in U-2 OS/NFκB cells [2]: 0.362 nM
Relative masking efficacy, luciferase reporter assay in U-2 OS/NFκB cells [2]: 1.5 fold
EC50, CD86 expression, primary human B-cell activation assay [3]: 0.134 nM
Relative masking efficacy, CD86 expression, primary human B-cell activation assay [3]: 0.77 fold
EC50 [6]: 2.01 nM
EC50 [7]: 2.52 nM
Relative masking efficacy [8]: 1.5 fold
Relative masking efficacy [9]: 1.7 fold
B3: uPA-activated (MC3/MC4) (antibody, not shown: small tags and cut ends)
heavy: B2 heavy
light: DIQMTQSPSSVSASVGDRVTITCRASQGIYSWLAWYQQKPGKAPNLLIYTASTLQSGVPSRFSGSGSGTDFTLTISSLQPEDFATYYCQQANIFPLTFGGGTKVEIKRTVAAPSVFIFPPSDEQLKSGTASVVCLLNNFYPREAKVQWKVDNALQSGNSQESVTEQDSKDSTYSLSSTLTLSKADYEKHKVYACEVTHQGLSSPVTKSFNRGEC
notes: Masked compound with CL2 (MC3 or MC4, printed 'MC3/MC4') after cleavage of the masking moiety by recombinant human uPA

EC50, luciferase reporter assay in U-2 OS/NFκB cells [2]: 45.8 nM
Relative masking efficacy, luciferase reporter assay in U-2 OS/NFκB cells [2]: 193 fold
EC50, CD86 expression, primary human B-cell activation assay [3]: 14.7 nM
Relative masking efficacy, CD86 expression, primary human B-cell activation assay [3]: 84 fold
EC50, CD83 expression, B-cells of hCD40 KI mice [4]: 1.24 nM
EC50, CD86 expression, B-cells of hCD40 KI mice [4]: 1.05 nM
Relative masking efficacy, CD83 expression, B-cells of hCD40 KI mice [4]: 24.3 fold
Relative masking efficacy, CD86 expression, B-cells of hCD40 KI mice [4]: 33.8 fold
EC50, CD83 expression, MoDC maturation assay [5]: 17.2 nM
EC50, IL-8 release, MoDC maturation assay [5]: 12.2 nM
EC50 [6]: 143 nM
EC50 [7]: 176 nM
Relative masking efficacy [8]: 107 fold
Relative masking efficacy [9]: 118 fold
B5: MC4 (masked mAb1 comprising MM2 and CL2) (antibody, human IgG2, kappa)
heavy: B2 heavy
light: EVGSYYVCPVRFQYFCEESGRSAGGGGPLGLAGSGGSDIQMTQSPSSVSASVGDRVTITCRASQGIYSWLAWYQQKPGKAPNLLIYTASTLQSGVPSRFSGSGSGTDFTLTISSLQPEDFATYYCQQANIFPLTFGGGTKVEIKRTVAAPSVFIFPPSDEQLKSGTASVVCLLNNFYPREAKVQWKVDNALQSGNSQESVTEQDSKDSTYSLSSTLTLSKADYEKHKVYACEVTHQGLSSPVTKSFNRGEC
notes: as for B2

EC50, luciferase reporter assay in U-2 OS/NFκB cells [2]: 108 nM
Relative masking efficacy, luciferase reporter assay in U-2 OS/NFκB cells [2]: 457 fold
EC50, CD86 expression, primary human B-cell activation assay [3]: 27.9 nM
Relative masking efficacy, CD86 expression, primary human B-cell activation assay [3]: 158 fold
EC50, CD83 expression, B-cells of hCD40 KI mice [4]: 2.84 nM
EC50, CD86 expression, B-cells of hCD40 KI mice [4]: 2.01 nM
Relative masking efficacy, CD83 expression, B-cells of hCD40 KI mice [4]: 55.7 fold
Relative masking efficacy, CD86 expression, B-cells of hCD40 KI mice [4]: 64.9 fold
EC50, CD83 expression, MoDC maturation assay [5]: 27.4 nM
EC50, IL-8 release, MoDC maturation assay [5]: 13.3 nM
EC50 [6]: 388 nM
EC50 [7]: 197 nM
Relative masking efficacy [8]: 289 fold
Relative masking efficacy [9]: 131 fold
B6: MC3 (masked mAb1 comprising MM1 and CL2) (antibody, human IgG2, kappa)
heavy: B2 heavy
light: EDEPGIRCYYNDDTCQYSGRSAGGGGPLGLAGSGGSDIQMTQSPSSVSASVGDRVTITCRASQGIYSWLAWYQQKPGKAPNLLIYTASTLQSGVPSRFSGSGSGTDFTLTISSLQPEDFATYYCQQANIFPLTFGGGTKVEIKRTVAAPSVFIFPPSDEQLKSGTASVVCLLNNFYPREAKVQWKVDNALQSGNSQESVTEQDSKDSTYSLSSTLTLSKADYEKHKVYACEVTHQGLSSPVTKSFNRGEC
notes: as for B2

EC50, luciferase reporter assay in U-2 OS/NFκB cells [2]: 0.261 nM
Relative masking efficacy, luciferase reporter assay in U-2 OS/NFκB cells [2]: 1.1 fold
EC50, CD86 expression, primary human B-cell activation assay [3]: 0.114 nM
Relative masking efficacy, CD86 expression, primary human B-cell activation assay [3]: 0.65 fold
EC50 [6]: 1.46 nM
EC50 [7]: 1.94 nM
Relative masking efficacy [8]: 1.1 fold
Relative masking efficacy [9]: 1.3 fold
B7: MMP9-activated (MC1/MC2) (antibody, not shown: small tags and cut ends)
heavy: B2 heavy
light: B3 light
